Values quoted from earlier work, collected in PMC4623604, “Discovery of Small Molecules that Inhibit the Disordered Protein, p27^Kip1” (Scientific Reports, 2015).

Biological target: cyclin A (Homo sapiens) (UniProt P20248)
Sequence (P20248 whole entry): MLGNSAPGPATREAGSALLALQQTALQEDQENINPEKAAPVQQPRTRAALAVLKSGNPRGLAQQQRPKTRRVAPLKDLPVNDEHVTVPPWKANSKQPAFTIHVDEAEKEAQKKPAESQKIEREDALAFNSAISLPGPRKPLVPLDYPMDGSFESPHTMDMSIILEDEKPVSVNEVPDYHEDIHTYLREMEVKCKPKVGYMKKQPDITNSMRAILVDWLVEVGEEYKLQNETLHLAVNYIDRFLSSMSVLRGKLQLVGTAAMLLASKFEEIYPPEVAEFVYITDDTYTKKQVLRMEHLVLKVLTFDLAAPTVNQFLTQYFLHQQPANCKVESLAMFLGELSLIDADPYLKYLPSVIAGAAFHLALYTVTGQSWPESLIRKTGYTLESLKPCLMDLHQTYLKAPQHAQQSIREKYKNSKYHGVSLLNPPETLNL

- Kd: 0.042 µM
Substance: p27 D1 (from UniProt P46527)
